Data as given in US20210380703A1 (RIGEL PHARMACEUTICALS, published 2021).
Positions count from the first letter of the chain named.

B1: 369_F12 (antibody, V domains shown)
VH: EVQLLESGGGLVQPGGSLRLSCAASGFTFSSYSMNWVRQAPGKGLEWVASINYNSGYKSYADSVKGRFTISRDNSKNTLYLQMNSLRAEDTAVYYCARSATWHDTHLDYWGQGTLVTVSS
VL: DIQMTQSPSSLSASVGDRVTITCRASQSIISYLNWYQQKPGKAPKLLIYAVTSLASGVPSRFSGSGSGTDFTLTISSLQPEDFATYYCQQSYENPLTFGGGTKVEIK
notes: VH/VL only
B2: 371_C09 (antibody, V domains shown)
VH: B1 VH with S30D, A49S, S50G, S55G
VL: B1 VL with I30L, S31T, L33V, V51A, T52S, A55Q, E93D
notes: VH/VL only
B3: 373_B08 (antibody, V domains shown)
VH: B1 VH with S30D, S50N, S59G
VL: B1 VL with I30L, S31T, L47V, V51A
notes: VH/VL only
B4: 373_E02 (antibody, V domains shown)
VH: B1 VH with S30D, S33G, N35H, A49S, S50G, S55G, S59G
VL: not shown
notes: VH/VL only
B5: 371_D03 (antibody, V domains shown)
VH: B1 VH with S30D, S33G, S50N, S55G, K58T, H106A
VL: B1 VL with I30L, S31T, L33V, L47V, V51A, E93N, N94T
notes: VH/VL only
B6: 373_B11 (antibody, V domains shown)
VH: B1 VH with S50N, S59G
VL: B1 VL with I30L, V51A, L54R, E93D
notes: VH/VL only
B7: 370_E07 (antibody, V domains shown)
VH: B1 VH with S30D, S50N, S55G, K58T, S59G
VL: B1 VL with I30L, S31T, V51A, L54R, E93D
notes: VH/VL only
B8: 374_A11 (antibody, V domains shown)
VH: B1 VH with S31D, S50N, S59G
VL: B1 VL with I30L, L33V, L47V, V51A, L54R, E93S, N94S
notes: VH/VL only
B9: 371_H01 (antibody, V domains shown)
VH: B1 VH with S30D, S50G, S55G, K58T, S59G
VL: not shown
notes: VH/VL only
B10: 370_H03 (antibody, V domains shown)
VH: B1 VH with S30D, S50G, S59G
VL: B1 VL with I30L, S31T, V51A, E93D, N94T
notes: VH/VL only
B11: 373_C09 (antibody, V domains shown)
VH: B1 VH with S30D, S50G
VL: B1 VL with I30L, S31T, L47V, V51A, L54R, N94L
notes: VH/VL only
B12: 373_E03 (antibody, V domains shown)
VH: B1 VH with S30D, S33G, A49S, S50N, S55G, K58T, S59G, H106A
VL: B1 VL with I30L, L33V, L47V, V51A, L54R, E93D, N94L
notes: VH/VL only
B13: 373_F03 (antibody, V domains shown)
VH: B1 VH with S30D, S50N, K58T, S59G
VL: B1 VL with I30L, S31T, L33V, V51A, L54R, A55H, E93D, N94S
notes: VH/VL only
B14: 374_C02 (antibody, V domains shown)
VH: B1 VH with S30D, A49S, S50G, S55G, K58T, S59G
VL: B1 VL with I30L, V51A, L54R, A55H, E93D, N94S
notes: VH/VL only
B15: 370_G12 (antibody, V domains shown)
VH: B1 VH with S50G, S55G, S59G, H106A
VL: B1 VL with S31T, V51A, Y92D, N94S
notes: VH/VL only
B16: 374_B09 (antibody, V domains shown)
VH: B1 VH with A49S, S50G, S55G
VL: B1 VL with I30V, S31R, L47V, V51A, N94L
notes: VH/VL only
B17: 369_G07 (antibody, V domains shown)
VH: B1 VH with S50G, S55G, K58T
VL: B1 VL with I30L, S31T, L33V, L47V, V51A, L54R, E93D
notes: VH/VL only
B18: 373_B03 (antibody, V domains shown)
VH: B1 VH with S50G
VL: B1 VL with I30L, S31T, L47V, V51A, E93D
notes: VH/VL only
B19: 374_C05 (antibody, V domains shown)
VH: B1 VH with S30D, S50G
VL: B1 VL with S31R, L47V, V51A, L54R, E93D
notes: VH/VL only
B20: 372_D04 (antibody, V domains shown)
VH: B1 VH with S50N, K58T, S59G
VL: B1 VL with I30L, S31T, V51A, A55H, E93D, N94L
notes: VH/VL only
B21: 370_A06 (antibody, V domains shown)
VH: B1 VH
VL: B1 VL with I30V, S31T, L47V, V51A, E93D, N94L
notes: VH/VL only
B22: 370_C04 (antibody, V domains shown)
VH: B1 VH with S33G, K58T
VL: B1 VL with I30L, V51A, T52S, A55Q
notes: VH/VL only
B23: 370_F08 (antibody, V domains shown)
VH: B1 VH with S30D, S50G, S55G, K58T
VL: B1 VL with L33V, V51A, L54R, A55H, E93N, N94L
notes: VH/VL only
B24: 374_C11 (antibody, V domains shown)
VH: B1 VH with S50G, S59G
VL: B1 VL with I30L, S31T, V51A, L54R, N94S
notes: VH/VL only
B25: 373_E04 (antibody, V domains shown)
VH: B1 VH with S30D, S50G, S55G, K58T
VL: B1 VL with I30L, S31T, L33V, V51A, L54R, E93N, N94S
notes: VH/VL only
B26: 373_H10 (antibody, V domains shown)
VH: B1 VH with S50G, S55G, K58T, S59G
VL: B1 VL with I30L, L33V, V51A, L54R, E93S, N94L
notes: VH/VL only
B27: 371_G03 (antibody, V domains shown)
VH: B1 VH with S33G, S50N, S55G, S59G
VL: B1 VL with I30V, S31T, L33V, L47V, V51A, E93N, N94L
notes: VH/VL only
B28: 373_G05 (antibody, V domains shown)
VH: B1 VH with S50G, S55G, K58T
VL: B1 VL with I30L, V51A, N94L
notes: VH/VL only
B29: 372_F07 (antibody, V domains shown)
VH: B1 VH with S30D, S31D, S50G, S59G
VL: B1 VL with I30L, S31T, L47V, V51A, L54R, N94L
notes: VH/VL only
B30: 373_E06 (antibody, V domains shown)
VH: B1 VH with S30D, S50G
VL: B1 VL with I30L, S31R, V51A, A55H, E93D
notes: VH/VL only
B31: 374_C04 (antibody, V domains shown)
VH: B1 VH with S50G
VL: B1 VL with I30L, S31T, V51A, T52S, A55Q, N94L
notes: VH/VL only
B32: 371_F05 (antibody, V domains shown)
VH: B1 VH with S50G
VL: B1 VL with I30L, V51A, L54R, A55H
notes: VH/VL only
B33: 370_B05 (antibody, V domains shown)
VH: B1 VH with S33G, S55G, K58T
VL: B1 VL with I30L, S31T, L33V, L47V, V51A, L54R
notes: VH/VL only
B34: 374_C08 (antibody, V domains shown)
VH: B1 VH with S30D, S33G, A49S, S50G, H106A
VL: B1 VL with I30L, L33V, L54R, E93D, N94S
notes: VH/VL only
B35: 373_H06 (antibody, V domains shown)
VH: B1 VH with S33G, N35H, S50G, S55G, K58T
VL: B1 VL with L33V, V51A, E93D, N94L
notes: VH/VL only

Experiments:
human ACVR2A = human ACVR2A (human, UniProt P27037 20-135, limits assumed); assay: ELISA
Summary of the method: (§1)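 Binding signal was read by ELISA after ACVR2A-specific monoclonal antibodies were tested against human ACVR2A and mouse ACVR2A, with human Fc as the negative control.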

mouse ACVR2A = mouse ACVR2A (mouse, UniProt P27038 20-135, limits assumed); assay: ELISA
Summary of the method: as §1

[1] = target: T1, biotinylated goat anti-human kappa light chain; assay: ELISA; positive control
T1 construct: Positive control of the ELISA
Summary of the method: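 ELISA measured binding of ACVR2A-specific monoclonal antibodies to human and mouse ACVR2A. Biotinylated goat anti-human kappa light chain served as positive control and human Fc as negative control.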
Also: test concentration or dose not given here.

Chain of mouse ACVR2A (P27038 20-135 limits assumed): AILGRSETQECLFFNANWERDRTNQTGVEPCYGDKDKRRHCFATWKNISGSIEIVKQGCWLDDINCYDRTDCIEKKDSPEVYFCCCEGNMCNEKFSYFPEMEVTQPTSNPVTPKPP
Chain of human ACVR2A (P27037 20-135 limits assumed): as the sequence (P27038 20-135 limits assumed) above, with R20K, I73V counted along it

Binder	optical density (human ACVR2A) [OD]	optical density (mouse ACVR2A) [OD]	optical density [1] [OD]
B1	2.73	2.82	3.6
B2	3.37	3.29	3.39
B3	3.7	3.66	3.22
B4	3.61	3.64	2.92
B5	1.54	1.83	3.57
B6	3.72	3.65	3.22
B7	3.44	3.5	3.45
B8	3.65	3.72	2.81
B9	3.03	3	3.69
B10	3.43	3.56	3.56
B11	3.64	3.6	3.22
B12	3.46	3.46	3.25
B13	3.65	3.6	3.21
B14	3.68	3.64	3.06
B15	1.34	1.6	3.52
B16	3.62	3.65	3.19
B17	3.32	3.37	2.98
B18	3.64	3.62	3.16

Binder	optical density (human ACVR2A) [OD]	optical density (mouse ACVR2A) [OD]	optical density [1] [OD]
B19	3.7	3.69	3.18
B20	3.4	3.41	3.38
B21	2.59	2.77	3.47
B22	2.32	2.63	3.6
B23	2.34	2.99	3.59
B24	3.64	3.59	3.21
B25	3.56	3.55	3.3
B26	3.24	3.25	3.19
B27	3.12	3.27	3.59
B28	3.61	3.62	3.22
B29	3.25	3.24	3.4
B30	3.71	3.64	3.22
B31	3.74	3.74	3.17
B32	2.89	3.15	3.33
B33	2.84	3.11	3.49
B34	3.29	3.42	3.18
B35	3	3.15	3.3
